From publication PMC5034325
One block for each substance: values may come before it.

Biological target: human taste receptor T1R2-T1R3 (human) (UniProt Q8TE23)
Sequence of UniProt Q8TE23 (Q8TE23 20-839, chain 1 of 2): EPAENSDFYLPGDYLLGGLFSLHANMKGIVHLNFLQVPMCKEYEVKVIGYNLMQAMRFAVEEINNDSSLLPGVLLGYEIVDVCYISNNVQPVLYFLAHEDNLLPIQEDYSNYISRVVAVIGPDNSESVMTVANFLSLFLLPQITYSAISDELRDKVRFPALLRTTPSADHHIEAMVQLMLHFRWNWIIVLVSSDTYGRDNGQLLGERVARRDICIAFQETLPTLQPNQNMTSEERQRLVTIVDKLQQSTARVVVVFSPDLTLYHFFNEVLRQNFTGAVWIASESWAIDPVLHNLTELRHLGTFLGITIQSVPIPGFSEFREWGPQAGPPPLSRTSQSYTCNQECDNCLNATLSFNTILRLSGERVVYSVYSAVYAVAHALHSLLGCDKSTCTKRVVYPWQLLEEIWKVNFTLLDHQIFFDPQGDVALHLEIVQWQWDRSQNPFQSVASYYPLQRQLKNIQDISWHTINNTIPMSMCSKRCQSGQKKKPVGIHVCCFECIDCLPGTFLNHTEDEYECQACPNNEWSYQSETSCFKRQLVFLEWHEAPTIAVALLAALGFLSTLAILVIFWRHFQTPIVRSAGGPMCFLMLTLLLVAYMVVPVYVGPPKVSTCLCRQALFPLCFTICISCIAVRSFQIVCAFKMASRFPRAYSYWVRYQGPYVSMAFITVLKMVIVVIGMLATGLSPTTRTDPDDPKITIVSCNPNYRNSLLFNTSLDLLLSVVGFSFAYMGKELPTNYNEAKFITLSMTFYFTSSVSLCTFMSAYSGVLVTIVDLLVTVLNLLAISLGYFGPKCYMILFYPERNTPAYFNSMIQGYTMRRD
Sequence of UniProt Q8TE23 (Q7RTX0 21-852, chain 2 of 2, further chain): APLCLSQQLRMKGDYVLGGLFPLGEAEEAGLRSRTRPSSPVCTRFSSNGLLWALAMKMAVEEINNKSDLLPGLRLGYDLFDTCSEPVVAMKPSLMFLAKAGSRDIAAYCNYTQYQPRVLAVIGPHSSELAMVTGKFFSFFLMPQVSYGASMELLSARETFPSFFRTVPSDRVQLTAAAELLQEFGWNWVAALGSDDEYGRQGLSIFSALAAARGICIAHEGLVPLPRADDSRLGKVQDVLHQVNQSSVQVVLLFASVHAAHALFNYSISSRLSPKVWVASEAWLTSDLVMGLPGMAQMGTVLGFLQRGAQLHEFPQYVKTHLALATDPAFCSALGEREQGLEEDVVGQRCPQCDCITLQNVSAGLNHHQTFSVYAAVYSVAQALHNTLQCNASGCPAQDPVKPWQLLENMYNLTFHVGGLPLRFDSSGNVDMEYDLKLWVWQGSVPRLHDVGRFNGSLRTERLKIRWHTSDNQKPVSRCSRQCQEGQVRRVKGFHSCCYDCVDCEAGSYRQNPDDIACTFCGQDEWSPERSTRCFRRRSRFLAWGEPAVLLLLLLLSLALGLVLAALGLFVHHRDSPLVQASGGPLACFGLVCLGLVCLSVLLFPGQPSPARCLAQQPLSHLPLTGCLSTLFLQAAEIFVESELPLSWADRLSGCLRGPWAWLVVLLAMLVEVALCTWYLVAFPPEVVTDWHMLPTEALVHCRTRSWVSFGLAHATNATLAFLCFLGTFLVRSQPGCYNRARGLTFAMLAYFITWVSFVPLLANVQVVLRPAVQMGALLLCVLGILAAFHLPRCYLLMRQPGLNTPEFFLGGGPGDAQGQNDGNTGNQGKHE

- sweetness threshold, triangle test by a panel of tasters, 5 to 500 nM (also printed as 0.62 mg/L): 55 nM
Substance: Y65R-MNEI (ligand)

- sweetness threshold, triangle test by a panel of tasters, 5 to 500 nM (also printed as 0.28 mg/L): 25 nM
Substance: E23Q, Q28K, C41S, Y65R-MNEI (Mut3) (ligand)

- sweetness threshold, triangle test by a panel of tasters, 5 to 500 nM (also printed as 0.40 mg/L): 36 nM
Substance: Q28K, C41S, Y65R-MNEI (Mut2) (ligand)

- sweetness threshold, triangle test by a panel of tasters, 5 to 500 nM (also printed as 2.50 mg/L): 223 nM
Substance: C41S, Y65R, S67K, D68N-MNEI (Mut1) (ligand)
